Patent publication US20190100597A1

Target: human CD20 on CD20-expressing cell lines (human) (UniProt P11836)
Assay: cell-based or functional assay

Chain of rituximab-derived anti-human CD20 IgM+J (antibody) (heavy): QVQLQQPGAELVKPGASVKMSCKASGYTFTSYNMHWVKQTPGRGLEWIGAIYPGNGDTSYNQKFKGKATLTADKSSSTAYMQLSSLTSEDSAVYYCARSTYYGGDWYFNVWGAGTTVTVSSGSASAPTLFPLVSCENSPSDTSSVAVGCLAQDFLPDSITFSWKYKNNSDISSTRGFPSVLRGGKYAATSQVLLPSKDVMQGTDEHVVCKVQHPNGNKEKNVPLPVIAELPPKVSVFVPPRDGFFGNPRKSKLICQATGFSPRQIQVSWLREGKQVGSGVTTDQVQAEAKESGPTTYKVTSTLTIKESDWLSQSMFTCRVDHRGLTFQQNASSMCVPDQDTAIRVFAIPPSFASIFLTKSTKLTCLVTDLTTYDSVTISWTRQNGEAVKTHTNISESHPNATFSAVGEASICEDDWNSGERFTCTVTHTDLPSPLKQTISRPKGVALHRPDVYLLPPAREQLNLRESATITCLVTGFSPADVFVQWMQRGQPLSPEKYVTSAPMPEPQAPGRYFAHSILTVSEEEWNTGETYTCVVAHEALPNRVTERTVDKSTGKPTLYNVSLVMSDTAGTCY
Chain of rituximab-derived anti-human CD20 IgM+J (antibody) (light): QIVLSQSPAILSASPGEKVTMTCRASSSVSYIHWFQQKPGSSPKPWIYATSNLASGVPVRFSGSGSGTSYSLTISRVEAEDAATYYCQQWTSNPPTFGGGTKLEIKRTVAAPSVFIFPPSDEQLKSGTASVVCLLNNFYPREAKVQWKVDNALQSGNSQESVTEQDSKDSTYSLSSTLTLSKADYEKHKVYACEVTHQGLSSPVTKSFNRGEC
Chain of rituximab-derived anti-human CD20 IgM+J (antibody) (chain): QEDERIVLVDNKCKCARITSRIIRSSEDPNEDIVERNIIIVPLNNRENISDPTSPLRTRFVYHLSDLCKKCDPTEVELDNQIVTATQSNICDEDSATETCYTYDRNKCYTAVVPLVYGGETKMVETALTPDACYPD
Chain of human CD20 on CD20-expressing cell lines (human) (P11836 whole entry): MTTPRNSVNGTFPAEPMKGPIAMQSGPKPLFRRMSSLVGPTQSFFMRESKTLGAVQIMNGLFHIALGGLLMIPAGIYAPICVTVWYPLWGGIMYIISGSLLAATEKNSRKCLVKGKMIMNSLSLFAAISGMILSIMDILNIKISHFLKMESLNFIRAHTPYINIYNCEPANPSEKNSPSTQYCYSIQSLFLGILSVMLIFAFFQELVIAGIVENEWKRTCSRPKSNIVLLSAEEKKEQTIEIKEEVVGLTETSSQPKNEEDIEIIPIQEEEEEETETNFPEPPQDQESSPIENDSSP

CDC (IC50) on Raji cells: 2 µg/mL
CDC EC50 on DOHH-2 cells: 0.09 nM
CDC EC50 on Z-138 cells: 0.41 nM
Substance: rituximab-derived anti-human CD20 IgM+J (antibody)
